One block for each binder: values may come before it.
B1: MICA tetramer (recombinant MICA*001, residues 1-276, produced in transfected 293T cells, biotinylated and conjugated with PE-streptavidin) (ligand)
chain: EPHSLRYNLTVLSWDGSVQSGFLTEVHLDGQPFLRCDRQKCRAKPQGQWAEDVLGNKTWDRETRDLTGNGKDLRMTLAHIKDQKEGLHSLQEIRVCEIHEDNSTRSSQHFYYDGELFLSQNLETKEWTMPQSSRAQTLAMNVRNFLKEDAMKTKTHYHAMHADCLQELRRYLKSGVVLRRTVPPMVNVTRSEASEGNITVTCRASGFYPWNITLSWRQDGVSLSHDTQQWGDVLPDGNGTYQTWVATRICQGEEQRFTCYMEHSGNHSTHPVPSGK
modifications: glycosylated (secreted by 293T cells); BirA enzymatic biotinylation, conjugated with phycoerythrin (PE)-streptavidin
notes: Residues 1-276 probably count on the mature protein; also called MICA tetramers; PE-MICA tetramer

Tests used:
[1] = target: T1, ERp5 (endoplasmic reticulum protein 5) on the cell surface (Homo sapiens (Human), UniProt Q15084 20-440); assay: flow cytometry of freshly isolated tumor cells
T1 construct: Also stands for the native 50 kD ERp5 solubilised from U266 outer cell membranes in the MICA bead purification; also called surface ERp5; disulfide isomerase-related protein P5
T1 sequence: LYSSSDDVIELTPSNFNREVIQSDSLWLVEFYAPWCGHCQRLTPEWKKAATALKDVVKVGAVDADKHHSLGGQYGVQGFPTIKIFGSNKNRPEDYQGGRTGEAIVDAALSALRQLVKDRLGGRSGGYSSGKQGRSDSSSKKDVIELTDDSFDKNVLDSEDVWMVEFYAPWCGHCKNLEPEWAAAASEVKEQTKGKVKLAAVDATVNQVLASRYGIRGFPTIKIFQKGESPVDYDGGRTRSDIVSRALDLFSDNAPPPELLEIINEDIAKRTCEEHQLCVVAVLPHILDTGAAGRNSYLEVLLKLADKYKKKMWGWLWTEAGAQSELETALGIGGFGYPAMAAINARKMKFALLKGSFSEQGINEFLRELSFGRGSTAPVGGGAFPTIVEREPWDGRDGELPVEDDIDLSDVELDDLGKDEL

[2] = target: T2, C39S mutant of ERp5 fragment 1-118 (Homo sapiens (Human), UniProt Q15084 20-137, C39S); assay: purified proteins mixed, non-reducing SDS-PAGE
T2 construct: Position 39 counts on the mature protein; not shown: N-terminal hexahistidine tract
T2 sequence: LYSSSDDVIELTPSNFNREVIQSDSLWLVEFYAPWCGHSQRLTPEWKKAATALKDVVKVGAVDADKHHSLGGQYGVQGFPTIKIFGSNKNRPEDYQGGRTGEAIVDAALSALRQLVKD
From the text: ERp5 activity assays. Ectodomain-only MICA, Siderocalin, and CD94-NKG2A were expressed in bacteria and purified as described (Li et al., 2001). […] All ERp5 sequences were fused to N-terminal hexahistidine tracts and included a C-terminal stop codon to prevent expression of the adjacent hexahistidine in pET22(b). Recombinant proteins were purified by metal affinity (BD Talon, Clontech) and size exclusion chromatography (Superdex 200, Pharmacia).

[3] = target: B1; assay: flow cytometry, tetramer staining of NKL cells
From the text: Early studies of NKG2D interactions with its ligands utilized randomly oligomerized recombinant MICA (rMICA) or ULBP family ligands produced as immunoglobulin fusion proteins, all of which bound exclusively to NKG2D expressing lymphocytes (Bauer et al., 1999; Cosman et al., 2001). Testing MICA and ULBP2 tetramers, the inventors confirmed that these high avidity reagents stained the NKL NK cell line and that binding was entirely accounted for by NKG2D (FIG. 1A). However, in the course of screening ˜40 cell lines by flow cytometry, the inventors observed that MICA, but not ULBP2, tetramers stained cell types lacking NKG2D. The highest fluorescence intensities were recorded with U266 myeloma cells and all of 10 epithelial tumor lines tested and correlated with relatively large amounts of cell surface MICA. Only monocytic U937 cells were identified as negative for tetramer binding (FIG. 1A). The MICA tetramers were prepared using glycosylated protein secreted by transfected 293T cells. However, tetramer binding was not reduced after cleavage of cell surface polypeptide-linked carbohydrates but was inhibited in the presence of unglycosylated rMICA (FIG. 1A).

[4] = target: T3, Siderocalin, expressed in bacteria, P80188
T3 chain: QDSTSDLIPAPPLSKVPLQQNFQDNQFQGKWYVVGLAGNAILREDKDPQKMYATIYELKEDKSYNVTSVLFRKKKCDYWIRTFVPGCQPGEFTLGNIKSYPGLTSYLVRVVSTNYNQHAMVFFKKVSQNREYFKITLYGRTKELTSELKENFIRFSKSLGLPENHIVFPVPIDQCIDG

Binder: B1
binding result [1]: binds

binding result [2]: binds
B2: isolated MICA α3 domain (residues 187-274), expressed in bacteria (ligand)
chain: NVTRSEASEGNITVTCRASGFYPWNITLSWRQDGVSLSHDTQQWGDVLPDGNGTYQTWVATRICQGEEQRFTCYMEHSGNHSTHPVPS
notes: Numbering probably of the mature protein (Li et al., 1999); also called α3 membrane-proximal domain

binding result [3]: binds
B3: NKG2D on NKL NK cells (receptor, human, UniProt P26718 1-216, looked up)
chain: MGWIRGRRSRHSWEMSEFHNYNLDLKKSDFSTRWQKQRCPVVKSKCRENASPFFFCCFIAVAMGIRFIIMVTIWSAVFLNSLFNQEVQIPLTESYCGPCPKNWICYKNNCYQFFDESKNWYESQASCMSQNASLLKVYSKEDQDLLKLVKSYHWMGLVHIPTNGSWQWEDGSILSPNLLTIIEMQKGDCALYASSFKGYIENCSTPNTYICMQRTV
notes: whole, on cells; On cells paired with DAP10 according to the description; also called KLRK1

B4: recombinant ERp5 (residues 1-421 of the mature protein), bacterially produced, N-terminal hexahistidine (protein)
chain: LYSSSDDVIELTPSNFNREVIQSDSLWLVEFYAPWCGHCQRLTPEWKKAATALKDVVKVGAVDADKHHSLGGQYGVQGFPTIKIFGSNKNRPEDYQGGRTGEAIVDAALSALRQLVKDRLGGRSGGYSSGKQGRSDSSSKKDVIELTDDSFDKNVLDSEDVWMVEFYAPWCGHCKNLEPEWAAAASEVKEQTKGKVKLAAVDATVNQVLASRYGIRGFPTIKIFQKGESPVDYDGGRTRSDIVSRALDLFSDNAPPPELLEIINEDIAKRTCEEHQLCVVAVLPHILDTGAAGRNSYLEVLLKLADKYKKKMWGWLWTEAGAQSELETALGIGGFGYPAMAAINARKMKFALLKGSFSEQGINEFLRELSFGRGSTAPVGGGAFPTIVEREPWDGRDGELPVEDDIDLSDVELDDLGKDEL
disulfide bond reduction, non-reducing gel electrophoresis [4]: ERp5 did not affect unrelated proteins with relatively accessible intrachain (Siderocalin) or intrachain and interchain (CD94-NKG2A) disulfide bonds
